Reference: the supplement of paper PMC11246515
± gives the standard deviation of the averaged measurements.

Assay: total protein half-life in vivo (active degradation + dilution); higher = more stable protein
[1] = E. coli NCM3722 delta-clpP delta-lon delta-hslV, growth: N-lim chemostat, doubling time 6 h
[2] = E. coli NCM3722 delta-clpP, growth: N-lim chemostat, doubling time 6 h
[3] = E. coli NCM3722 delta-hslV, growth: N-lim chemostat, doubling time 6 h
[4] = E. coli NCM3722 delta-lon, growth: N-lim chemostat, doubling time 6 h
[5] = E. coli NCM3722 delta-smpB, growth: N-lim chemostat, doubling time 6 h
[6] = wild type E. coli NCM3722, growth: C-lim chemostat, doubling time 3 h
[7] = wild type E. coli NCM3722, growth: C-lim chemostat, doubling time 6 h
[8] = wild type E. coli NCM3722, growth: C-lim chemostat, doubling time 12 h
[9] = wild type E. coli NCM3722, growth: N-lim chemostat, doubling time 6 h
[10] = wild type E. coli NCM3722, growth: N-lim chemostat, doubling time 12 h
[11] = wild type E. coli NCM3722, growth: P-lim chemostat, doubling time 6 h
[12] = wild type E. coli NCM3722, growth: P-lim chemostat, doubling time 12 h

Sequence | total protein half-life in vivo [1] [h] | total protein half-life in vivo [2] [h] | total protein half-life in vivo [3] [h] | total protein half-life in vivo [4] [h] | total protein half-life in vivo [5] [h] | total protein half-life in vivo [6] [h] | total protein half-life in vivo [7] [h] | total protein half-life in vivo [8] [h] | total protein half-life in vivo [9] [h] | total protein half-life in vivo [10] [h] | total protein half-life in vivo [11] [h] | total protein half-life in vivo [12] [h]
MPPRRYNPDTRRDELLERINLDIPGAVAQALREDLGGTVDANNDITAKLLPENSRSHATVITRENGVFCGKRWVEEVFIQLAGDDVTIIWHVDDGDVINANQSLFELEGPSRVLLTGERTALNFVQTLSGVASKVRHYVELLEGTNTQLLDTRKTLPGLRSALKYAVLCGGGANHRLGLSDAFLIKENHIIASGSVRQAVEKASWLHPDAPVEVEVENLEELDEALKAGADIIMLDNFETEQMREAVKRTNGKALLEVSGNVTDKTLREFAETGVDFISVGALTKHVQALDLSMRFR | 4.6 ± 0.47 | 5.46 ± 2.3 | 4.1 ± 0.29 | 6.13 ± 1.8 | 4.05 ± 0.33 | 2.86 ± 0.25 | 5.827 ± 0.04 | 8.46 ± 0.51 | 3.72 ± 0.12 | 7.1 ± 0.15 | 5.5 ± 0.4 | 9.73 ± 0.27
MPQSALFTGIIPPVSTIFTADGQLDKPGTAALIDDLIKAGVDGLFFLGSGGEFSQLGAEERKAIARFAIDHVDRRVPVLIGTGGTNARETIELSQHAQQAGADGIVVINPYYWKVSEANLIRYFEQVADSVTLPVMLYNFPALTGQDLTPALVKTLADSRSNIIGIKDTIDSVAHLRSMIHTVKGAHPHFTVLCGYDDHLFNTLLLGGDGAISASGNFAPQVSVNLLKAWRDGDVAKAAGYHQTLLQIPQMYQLDTPFVNVIKEAIVLCGRPVSTHVLPPASPLDEPRKAQLKTLLQQLKLC | – | – | 3.07 | – | – | – | – | – | – | – | – | –
MPRFAANLSMMFTEVPFIERFAAARKAGFDAVEFLFPYNYSTLQIQKQLEQNHLTLALFNTAPGDINAGEWGLSALPGREHEAHADIDLALEYALALNCEQVHVMAGVVPAGEDAERYRAVFIDNIRYAADRFAPHGKRILVEALSPGVKPHYLFSSQYQALAIVEEVARDNVFIQLDTFHAQKVDGNLTHLIRDYAGKYAHVQIAGLPDRHEPDDGEINYPWLFRLFDEVGYQGWIGCEYKPRGLTEEGLGWFDAWR | 3.98 | 2.21 | 2.23 | 2.48 ± 0.15 | 2.41 ± 0.048 | 2.829 ± 0.0073 | 3.68 ± 0.23 | 6.54 ± 0.17 | – | 3.45 | 4.28 | 8.69 ± 0.052
MPRLASAVLPLCSQHPGQCGLFPLEKSLDAFAARYRLAEMAEHTLDVQYYIWQDDMSGRLLFSALLAAAKRGVRVRLLLDDNNTPGLDDILRLLDSHPRIEVRLFNPFSFRLLRPLGYITDFSRLNRRMHNKSFTVDGVVTLVGGRNIGDAYFGAGEEPLFSDLDVMAIGPVVEDVADDFARYWYCKSVSPLQQVLDVPEGEMADRIELPASWHNDAMTHRYLRKMESSPFINHLVDGTLPLIWAKTRLLSDDPAKGEGKAKRHSLLPQRLFDIMGSPSERIDIISSYFVPTRAGVAQLLRMVRKGVKIAILTNSLAANDVAVVHAGYARWRKKLLRYGVELYELKPTREQSSTLHDRGITGNSGASLHAKTFSIDGKTVFIGSFNFDPRSTLLNTEMGFVIESETLAQLIDKRFIQSQYDAAWQLRLDRWGRINWVDRHAKKEIILKKEPATSFWKRVMVRLASILPVEWLL | 5.59 ± 0.72 | 5.95 ± 0.048 | 5.92 ± 1.4 | 5.31 ± 0.46 | 5.1 ± 0.35 | 2.78 ± 0.11 | 5.38 ± 0.64 | – | 4.78 ± 0.52 | 11.1 ± 0.75 | 5.59 ± 0.044 | –
MPRLLTKRGCWITLAAAPFLLFLAAWGADKLWPLPLHEVNPARVVVAQDGTPLWRFADADGIWRYPVTIEDVSPRYLEALINYEDRWFWKHPGVNPFSVARAAWQDLTSGRVISGGSTLTMQVARLLDPHPKTFGGKIRQLWRALQLEWHLSKREILTLYLNRAPFGGTLQGIGAASWAYLGKSPANLSYSEAAMLAVLPQAPSRLRPDRWPERAEAARNKVLERMAVQGVWSREQVKESREEPIWLAPRQMPQLAPLFSRMMLGKSKSDKITTTLDAGLQRRLEELAQNWKGRLPPRSSLAMIVVDHTDMRVRGWVGSVDLNDDSRFGHVDMVNSIRSPGSVLKPFVYGLALDEGLIHPASLLQDVPRRTGDYRPGNFDSGFHGPISMSEALVRSLNLPAVQVLEAYGPKRFAAKLRNVGLPLYLPNGAAPNLSLILGGAGAKLEDMAAAYTAFARHGKAGKLRLQPDDPLLERPLMSSGAAWIIRRIMADEAQPLPDSALPRVAPLAWKTGTSYGYRDAWAIGVNARYVIGIWTGRPDGTPVVGQFGFASAVPLLNQVNNILLSRSANLPEDPRPNSVTRGVICWPGGQSLPEGDGNCRRRLATWLLDGSQPPTLLLPEQEGINGIRFPIWLDENGKRVAADCPQARQEMINVWPLPLEPWLPASERRAVRLPPASTSCPPYGHDAQLPLQLTGVRDGAIIKRLPGAAEATLPLQSSGGAGERWWFLNGEPLTERGRNVTLHLTDKGDYQLLVMDDVGQIATVKFVMQ | 5.44 | 6.31 ± 1.1 | 5.74 ± 0.091 | 5.64 ± 0.55 | 4.87 ± 1.3 | 3.04 | – | 11.2 | 5.98 | 13.92 ± 0.086 | 6.15 ± 2 | 9.01 ± 4
MPSTPEEKKKVLTRVRRIRGQIDALERSLEGDAECRAILQQIAAVRGAANGLMAEVLESHIRETFDRNDCYSREVSQSVDDTIELVRAYLK [P0AAP3] | 6.53 ± 0.38 | 5.29 ± 0.36 | 4.99 ± 0.14 | > 8 | 3.92 ± 0.13 | 2.5 ± 0.24 | 5.52 ± 0.22 | 8.3 ± 1.8 | 4.16 ± 0.36 | 7.59 | 4.67 ± 1.9 | 8.57 ± 0.52
MPTKPPYPREAYIVTIEKGKPGQTVTWYQLRADHPKPDSLISEHPTAQEAMDAKKRYEDPDKE [P0AAN5] | – | 5.03 ± 0.57 | 5.08 ± 0.48 | 5.38 ± 1.4 | 4.72 ± 0.16 | 3.69 | 3.08 | 7.61 | 4.1 ± 0.042 | 8.6 ± 1.8 | 5.3 | 9.63 ± 1.6
